Test results reported in US20250296971A1, “GASTRIC INHIBITORY PEPTIDE RECEPTOR LIGANDS” (priority 2021, published 2025).
*1 amine or outer side, *2 acyl side, *3 side chain or, on linkers, in order; H or OH if unused. Where a SMILES comes first, the peptide text is derived from it. Bridges are numbered along the chain shown (N, C = ends). Primed or numbered codes have the meaning given here. [ ]: non-standard residue; d: D form. 2Lut = 2,6-lutidylidene bridge between two thiols; Trp(5-Cl) = N[C@@H](Cc1c[nH]c2ccc(Cl)cc12)C(=O)O; Phe(3,4-Cl2) = N[C@@H](Cc1ccc(Cl)c(Cl)c1)C(=O)O; Pyridine(2,6-diCH2) = c1cc(C[*:1])nc(C[*:2])c1; Trp(7-F) = N[C@@H](Cc1c[nH]c2c(F)cccc12)C(=O)O; Phe(2,4-Cl2) = N[C@@H](Cc1ccc(Cl)cc1Cl)C(=O)O; 2Lut″ = 2,6-lutidylidene linking two thiols; Phe(3-Cl) = N[C@@H](Cc1cccc(Cl)c1)C(=O)O; Phe(4-Cl) = N[C@@H](Cc1ccc(Cl)cc1)C(=O)O; Thz(5,5-Me2) = CC1(C)SCN[C@@H]1C(=O)O; Ser(ΨH,HPro) = O=C(O)[C@@H]1COCN1; Hyp = O=C(O)[C@@H]1C[C@@H](O)CN1; hArg = N=C(N)NCCCC[C@H](N)C(=O)O; NMeE = CN[C@@H](CCC(=O)O)C(=O)O; pS = N[C@@H](COP(=O)(O)O)C(=O)O; hLys = NCCCCC[C@H](N)C(=O)O; Thz = O=C(O)[C@@H]1CSCN1; Thp = NC1(C(=O)O)CCOCC1

Columns and labels:
[1] = molecular target: T1, human GIP receptor (bioGIPR) (Homo sapiens, UniProt P48546); experiment: Surface plasmon resonance (SPR) based binding assay; settings: Single Cycle Kinetic mode, 25° C.; for t1/2 Category: SPR dissociation half-life; for Kd: SPR, 1:1 Langmuir binding model, read-out: pKD Category (converted)
T1 construct: Biotinylate extracellular of the human GIP receptor (bioGIPR, Proteros biostructures GmbH, lot #02/2b); purchased Proteros biostructures GmbH lot #02/2b
T1 sequence (P48546 22-138 limits assumed): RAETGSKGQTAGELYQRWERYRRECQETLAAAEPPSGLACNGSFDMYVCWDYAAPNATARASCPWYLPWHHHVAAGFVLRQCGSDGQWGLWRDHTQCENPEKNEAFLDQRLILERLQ
Summary of the method: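 Binding was measured at 25 °C by single-cycle kinetics against a reference flow cell, with blank-run and drift correction, after capturing biotinylated GIPR extracellular domain to ~3500 RU. Running buffer: HBST, 0.1% DMSO. A 1:1 Langmuir model gave kinetic rates, KD, t1/2 and pKD.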

[2] = molecular target: T2, GIPR (CHO-K1-hGIPR cells) (Homo sapiens, UniProt P48546); experiment: FACS binding assay; settings: competition with 20 nM GIP-057, 4° C. for 1 hour, read-out: pIC50 Category (converted)
T2 construct: host or cells: CHO-K1
T2 sequence (P48546 22-466): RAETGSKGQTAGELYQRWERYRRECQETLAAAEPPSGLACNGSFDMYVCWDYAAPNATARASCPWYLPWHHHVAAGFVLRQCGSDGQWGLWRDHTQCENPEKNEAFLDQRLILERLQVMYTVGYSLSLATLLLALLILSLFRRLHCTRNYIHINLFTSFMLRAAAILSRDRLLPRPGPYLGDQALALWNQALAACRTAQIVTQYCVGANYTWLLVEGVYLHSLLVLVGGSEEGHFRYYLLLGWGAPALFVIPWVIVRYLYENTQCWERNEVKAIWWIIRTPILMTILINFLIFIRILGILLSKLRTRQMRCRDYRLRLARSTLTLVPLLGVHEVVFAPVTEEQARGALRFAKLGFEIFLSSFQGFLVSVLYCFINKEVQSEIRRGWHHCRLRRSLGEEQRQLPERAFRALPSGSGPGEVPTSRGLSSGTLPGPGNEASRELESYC
Summary of the method: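 Read-out: flow cytometric median fluorescence intensity, APC/Cy5 channel, plotted vs peptide conc.; 4PL fit → EC50/pEC50 or IC50/pIC50. Cells: CHO-K1-hGIPR, Accutase-detached, 500.000/mL in PBS + 1% FCS. Detection: APC-streptavidin 1 μg/mL, 30 min, on ice.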

[3] = molecular target: human Gastric Inhibitory Peptide Receptor (GIPR) (human) (UniProt P48546); experiment: FACS competition vs biotinylated GIP-057 on CHO-K1-hGIPR cells; category A: pIC50 >8.0

CC[C@H](C)[C@@H]1NC(=O)[C@H](CC(C)C)NC(=O)C2(CCOCC2)NC(=O)[C@@H](NC(=O)[C@@H](CC(C)C)NC(=O)[C@H](CCCNC(=N)N)NC(=O)[C@@H]2C[C@@H](O)CN2C(=O)[C@H](Cc2c[nH]c3ccc(Cl)cc23)NC(=O)[C@H](Cc2c[nH]c3ccccc23)NC(=O)[C@H](CC(=O)O)NC(C)=O)CSCc2cccc(n2)CSC[C@@H](C(N)=O)NC1=O [GIP-376, Ac-Asp-Trp-5Clw-Hyp-Arg-leu-[Cys(2Lut)-Thp-Leu-Ile-Cys]-NH2] (Ac-DW[Trp(5-Cl)][Hyp]R[dL]C[Thp]LIC-NH2; linker 7-11 via Pyridine(2,6-diCH2))
t1/2 Category [1]: A (t1/2 values>15 min)
Kd [1]: 1 to 7.94 nM
IC50 [2]: < 10 nM

CC[C@H](C)[C@@H]1NC(=O)[C@H](CC(C)C)NC(=O)C2(CCOCC2)NC(=O)[C@@H](NC(=O)[C@@H](CC(C)C)NC(=O)[C@H](Cc2c[nH]cn2)NC(=O)[C@@H]2C[C@@H](O)CN2C(=O)[C@H](Cc2c[nH]c3ccc(Cl)cc23)NC(=O)[C@H](Cc2c[nH]c3ccccc23)NC(=O)[C@H](CC(=O)O)NC(C)=O)CSCc2cccc(n2)CSC[C@@H](C(N)=O)NC1=O [GIP-377, Ac-Asp-Trp-5Clw-Hyp-His-leu-[Cys(2Lut)-Thp-Leu-Ile-Cys]-NH2] (Ac-DW[Trp(5-Cl)][Hyp]H[dL]C[Thp]LIC-NH2; linker 7-11 via Pyridine(2,6-diCH2))
t1/2 Category [1]: A (t1/2 values>15 min)
Kd [1]: 1 to 7.94 nM
IC50 [2]: < 10 nM

CC[C@H](C)[C@@H]1NC(=O)[C@H](CC(C)C)NC(=O)C2(CCOCC2)NC(=O)[C@@H](NC(=O)[C@@H](CC(C)C)NC(=O)[C@H](CCCCCN)NC(=O)[C@@H]2C[C@@H](O)CN2C(=O)[C@H](Cc2c[nH]c3ccc(Cl)cc23)NC(=O)[C@H](Cc2c[nH]c3ccccc23)NC(=O)[C@H](CC(=O)O)NC(C)=O)CSCc2cccc(n2)CSC[C@@H](C(N)=O)NC1=O [GIP-378, Ac-Asp-Trp-5Clw-Hyp-Hly-leu-[Cys(2Lut)-Thp-Leu-Ile-Cys]-NH2] (Ac-DW[Trp(5-Cl)][Hyp][hLys][dL]C[Thp]LIC-NH2; linker 7-11 via Pyridine(2,6-diCH2))
t1/2 Category [1]: A (t1/2 values>15 min)
Kd [1]: 1 to 7.94 nM
IC50 [2]: < 10 nM

CC[C@H](C)[C@@H]1NC(=O)[C@H](CC(C)C)NC(=O)C2(CCOCC2)NC(=O)[C@@H](NC(=O)[C@@H](CC(C)C)NC(=O)[C@H](CCCCNC(=N)N)NC(=O)[C@@H]2C[C@@H](O)CN2C(=O)[C@H](Cc2c[nH]c3ccc(Cl)cc23)NC(=O)[C@H](Cc2c[nH]c3ccccc23)NC(=O)[C@H](CC(=O)O)NC(C)=O)CSCc2cccc(n2)CSC[C@@H](C(N)=O)NC1=O [GIP-395, Ac-Asp-Trp-5Clw-Hyp-Har-leu-[Cys(2Lut)-Thp-Leu-Ile-Cys]-NH2] (Ac-DW[Trp(5-Cl)][Hyp][hArg][dL]C[Thp]LIC-NH2; linker 7-11 via Pyridine(2,6-diCH2))
t1/2 Category [1]: A (t1/2 values>15 min)
Kd [1]: 1 to 7.94 nM
IC50 [2]: 10 to 79.4 nM

Ac-DW[Trp(5-Cl)][Thz(5,5-Me2)]E[dL]C[Thp]LIC-NH2 (linker 7-11 via Pyridine(2,6-diCH2)) [Ac-Asp-Trp-5Clw-Dtc-Glu-leu-[Cys(2Lut)-Thp-Leu-Ile-Cys]-NH2]
pIC50 [3]: > 8 pic50

Ac-DW[Trp(5-Cl)][Thz]E[dL]C[Thp]LIC-NH2 (linker 7-11 via Pyridine(2,6-diCH2)) [Ac-Asp-Trp-5Clw-Eaz-Glu-leu-[Cys(2Lut)-Thp-Leu-Ile-Cys]-NH2]
pIC50 [3]: > 8 pic50

Ac-DW[Trp(5-Cl)][Hyp][pS][dL]C[Thp]LIC-NH2 (linker 7-11 via Pyridine(2,6-diCH2)) [Ac-Asp-Trp-5Clw-Hyp-Pse-leu-[Cys(2Lut)-Thp-Leu-Ile-Cys]-NH2]
pIC50 [3]: > 8 pic50

Ac-D[Phe(2,3-Cl2)][Trp(5-Cl)][Hyp]E[dL]C[Thp]LIC-NH2 (linker 7-11 via Pyridine(2,6-diCH2)) [Ac-Asp-Egp-5Clw-Hyp-Glu-leu-[Cys(2Lut)-Thp-Leu-Ile-Cys]-NH2]
pIC50 [3]: > 8 pic50

{HO‑Glutar}-W[Trp(5-Cl)][Hyp]E[dL]C[Thp]LIC-NH2 (linker 6-10 via 2Lut) [HO-Glutar-Trp-5Clw-Hyp-Glu-leu-[Cys(2Lut)-Thp-Leu-Ile-Cys]-NH2]
pIC50 [3]: > 8 pic50

Ac-D[Trp(7-F)][Trp(5-Cl)][Hyp]E[dL]C[Thp]LIC-NH2 (linker 7-11 via Pyridine(2,6-diCH2)) [Ac-Asp-7Fw-5Clw-Hyp-Glu-leu-[Cys(2Lut)-Thp-Leu-Ile-Cys]-NH2]
pIC50 [3]: > 8 pic50

Ac-DW[Trp(5-Cl)][Hyp][NMeE]LC[Thp]LIC-NH2 (linker 7-11 via Pyridine(2,6-diCH2)) [Ac-Asp-Trp-5Clw-Hyp-Nme-Leu-[Cys(2Lut)-Thp-Leu-Ile-Cys]-NH2]
pIC50 [3]: > 8 pic50

B1: Ac-Asp-Egm-5Clw-Hyp-Glu-leu-[Cys(2Lut)-Thp-Leu-Ile-Cys]-NH2 (peptide)
peptide: Ac-D[Phe(2,4-Cl2)][Trp(5-Cl)][Hyp]E[dL]C[Thp]LIC-NH2
modifications: linker 7-11 via Pyridine(2,6-diCH2)
SMILES: CC[C@H](C)[C@@H]1NC(=O)[C@H](CC(C)C)NC(=O)C2(CCOCC2)NC(=O)[C@@H](NC(=O)[C@@H](CC(C)C)NC(=O)[C@H](CCC(=O)O)NC(=O)[C@@H]2C[C@@H](O)CN2C(=O)[C@H](Cc2c[nH]c3ccc(Cl)cc23)NC(=O)[C@H](Cc2ccc(Cl)cc2Cl)NC(=O)[C@H](CC(=O)O)NC(C)=O)CSCc2cccc(n2)CSC[C@@H](C(N)=O)NC1=O
pIC50 [3]: > 8 pic50

Ac-DW[Trp(7-F)][Hyp]E[dL]C[Thp]LIC-NH2 (linker 7-11 via 2Lut″) [Ac-Asp-Trp-7Fw-Hyp-Glu-leu-[Cys(2Lut)-Thp-Leu-Ile-Cys]-NH2]
pIC50 [3]: > 8 pic50

Ac-D[Phe(4-Cl)][Trp(5-Cl)][Hyp]E[dL]C[Thp]LIC-NH2 (linker 7-11 via Pyridine(2,6-diCH2)) [Ac-Asp-Pcf-5Clw-Hyp-Glu-leu-[Cys(2Lut)-Thp-Leu-Ile-Cys]-NH2]
pIC50 [3]: > 8 pic50

B2: Ac-Asp-Mcf-5Clw-Hyp-Glu-leu-[Cys(2Lut)-Thp-Leu-Ile-Cys]-NH2 (peptide)
peptide: Ac-D[Phe(3-Cl)][Trp(5-Cl)][Hyp]E[dL]C[Thp]LIC-NH2
modifications: linker 7-11 via Pyridine(2,6-diCH2)
SMILES: CC[C@H](C)[C@@H]1NC(=O)[C@H](CC(C)C)NC(=O)C2(CCOCC2)NC(=O)[C@@H](NC(=O)[C@@H](CC(C)C)NC(=O)[C@H](CCC(=O)O)NC(=O)[C@@H]2C[C@@H](O)CN2C(=O)[C@H](Cc2c[nH]c3ccc(Cl)cc23)NC(=O)[C@H](Cc2cccc(Cl)c2)NC(=O)[C@H](CC(=O)O)NC(C)=O)CSCc2cccc(n2)CSC[C@@H](C(N)=O)NC1=O
pIC50 [3]: > 8 pic50

B3: Ac-Asp-Hyw-5Clw-Hyp-Glu-leu-[Cys(2Lut)-Thp-Leu-Ile-Cys]-NH2 (peptide)
peptide: Ac-DX[Trp(5-Cl)][Hyp]E[dL]C[Thp]LIC-NH2
modifications: linker 7-11 via Pyridine(2,6-diCH2); not fully specified (residue 2); printed as Ac-Asp-Hyw-5Clw-Hyp-Glu-leu-[Cys(2Lut)-Thp-Leu-Ile-Cys]-NH2
pIC50 [3]: > 8 pic50

Ac-DW[Trp(5-Cl)][Hyp][dE]LC[Thp]LIC-NH2 (linker 7-11 via Pyridine(2,6-diCH2)) [Ac-Asp-Trp-5Clw-Hyp-glu-Leu-[Cys(2Lut)-Thp-Leu-Ile-Cys]-NH2]
pIC50 [3]: > 8 pic50

Ac-DW[Trp(5-Cl)][Ser(ΨH,HPro)]E[dL]C[Thp]LIC-NH2 (linker 7-11 via Pyridine(2,6-diCH2)) [Ac-Asp-Trp-5Clw-Oxa-Glu-leu-[Cys(2Lut)-Thp-Leu-Ile-Cys]-NH2]
pIC50 [3]: > 8 pic50

Ac-DW[Phe(3,4-Cl2)][Hyp]E[dL]C[Thp]LIC-NH2 (linker 7-11 via 2Lut″) [Ac-Asp-Trp-Eaa-Hyp-Glu-leu-[Cys(2Lut)-Thp-Leu-Ile-Cys]-NH2]
pIC50 [3]: > 8 pic50

Ac-DF[Trp(5-Cl)][Hyp]E[dL]C[Thp]LIC-NH2 (linker 7-11 via Pyridine(2,6-diCH2)) [Ac-Asp-Phe-5Clw-Hyp-Glu-leu-[Cys(2Lut)-Thp-Leu-Ile-Cys]-NH2]
pIC50 [3]: > 8 pic50

B4: Ac-Asp-Eaa-5Clw-Hyp-Glu-leu-[Cys(2Lut)-Thp-Leu-Ile-Cys]-NH2 (peptide)
peptide: Ac-D[Phe(3,4-Cl2)][Trp(5-Cl)][Hyp]E[dL]C[Thp]LIC-NH2
modifications: linker 7-11 via Pyridine(2,6-diCH2)
SMILES: CC[C@H](C)[C@@H]1NC(=O)[C@H](CC(C)C)NC(=O)C2(CCOCC2)NC(=O)[C@@H](NC(=O)[C@@H](CC(C)C)NC(=O)[C@H](CCC(=O)O)NC(=O)[C@@H]2C[C@@H](O)CN2C(=O)[C@H](Cc2c[nH]c3ccc(Cl)cc23)NC(=O)[C@H](Cc2ccc(Cl)c(Cl)c2)NC(=O)[C@H](CC(=O)O)NC(C)=O)CSCc2cccc(n2)CSC[C@@H](C(N)=O)NC1=O
pIC50 [3]: > 8 pic50
